Reference: the DeepSol protein solubility set

Experiment: soluble on expression in E. coli; label from the status in PepcDB or PDB records

Sequence | soluble on expression in E. coli
SLLLCDIGNSNANFLDDNKYFTLSIDQFLEFKNEQKIFYINVNEHLKEHLKNQKKFINLEPYFLFDTIYQGLGIDRIAACYTIEDGVVVDAGSAITIDIISNSIHLGGFILPGIANYKKIYSHISPRLKSEFNTQVSLDAFPQKTMDALSYGVFKGIYLLIKDAAQNKKLYFTGGDGQFLANYFDHAIYDKLLIFRGMKKIIKENPNLLY | soluble
SLLLRLCRWLRLLGYPTVAAHEVVDPTKVEDEDEVLVEFCREHDALLITRDRQLARRARAVLITADSVPEQIAEVLEFLGDEAFLDPDESRCPECNARVRRVTAENPGPFEVTWECPECRRKYWVGGHWRDMEETIDRVKKALRRVQRGHLRG | not soluble
SLMDVKCETPNCPFFMSVNTQPLCHECSERRQKNQN | soluble
SLPSAQAPSLLNPTDDFAALGNIAWLWMNSPMHRDWPVHLLARNTLAPIQLGQYILLRCNDVPVAYCSWALMDADTELSYVMAPSSLGGNAWNCGDRLWIIDWIAPFSRDDNRALRRALAERHPDSVGRSLRVRRGGDTARVKEYRGRALDAAAARAQLDRYHAELIAGLRASNGGYAPR | soluble
SLQIKKLFIALGIVLPLHMQGQNFLIKDAPEVIESYVNQFNREDNELYKQDIPNCGASDFLRKNIPFFECPDKELEKTYYFRWWTYRKHIKKTPDGFVITEFLPDVPWSGKYNTISCAANHHFYEGRWLRNAEILSDYASFWFSGSGNPRLYSFGAADAIYNYYLIHNDKMLLADLYPKLKDNFAKWEEEKRDSTGMFWQVDDRDGMEMSVSGHLSEGGRGYRPTINSYMYGEAVALAKIASIVDRDMEARTYQKKADKLKGIINRRLWDKQADFYKVIPLNGKMEFSYARELLGYIPWFYNIPPDNYSIAWKQLFDSKGFEAAYGPTTVEQRCPDFKISYEGHECQWNGPSWPYLTSMTLAAMANYFNSYDSPIITKKDYLSLLNIYSNSHRILSVNNDTICWIDENINPYTGDWISRTRLKSWKNGTWDDSKGGVERGKDYNHSSFCNLIISGLMGVRPQEDGSIIINPLVPDGCWDYFCLDNVYCQGKTITIIFDKKGKKYGRGKGFIVYVDDKCLSHTTRVQKVVIR | not soluble
SLQKFNQIHSLFEHLPANYGEFSDFEQKIATLAQEMKVDLSLYEIDHLSIRVNTEDKAKSWLTTLLNYGKILSNNLVNGRAIYLIELEQPLLFMGQRVFIIELPFPKNKHYPVESWEHIEFVIPFLPNESSIEWVERVQQQFLWNQSGNLTIKVDEPKVDGEQLPNPSIAVSFADKSQNHVCIKVHPFNIKNIIKVSEG | soluble
SLRAFRRATDVKTMAALDIQISVEAEGWSSEENLAAFATKVLNAAVDFLKREEEQPFPKMPVELSLVFTDDENIREINAEWRDKDKATNVLSFPAFPLEPGGMPGPMLGDIVIARETVEREALELDKSFEDHLTHLLVHGFLHLFGYDHMDEEEAEEMESLETRILAVLGLSDPYAGQE | not soluble
SLREMKHLRSIEQEIKMSIPSQEVPTIEDVVEKQKESWKKQIAHRIEKGSNQKHLFEQMTEELMAEYDSKEVISALLQLNYAMDTAPEDAGYSFGETGGAKGMVRFFINVGRNVNMSPKILVEEIAELVGIPGKAIGRIDIFEKFTFVEVPEEVAPFVYEALRYSRINGARVNLEPAKPRPKRESQRRTFQK | soluble
SLSEGYLSGLEYWNDIHWSCASYNEQVAGEKEEETNSVATLSYSSVDETQVRSLYVSCKSSGKFISSVHSRESQHSRSQRVTVLQTNPNPVFESPNLAAVEICRDASRETYLVPSSCKSICKNYNDLQIAGGQVMAINSVTTDFPSESSFEYGPLLKSSEIPLPMEDSISTQPSDFPQKPIQRYSSYWRITSIKEKSSLQMQNPISNAVLNEYLEQKVVELYKQYIMDTVFHDSSPTQILASELIMTSVDQISLQVSREKNLETSKARDIVFSRLLQLMSTEITEISTPSLHISQYSNVNP | not soluble
SLSEKVIDMYKSENCGCCSLWGKAMEKDGFEVRTHIMNDQALSALKEKHAIPAGLRSCHTAVAGNLIIEGHVPATTIHKAMQSGSGIYGLATPGMPAGSPGMEMGARKEAYDVIAFSPDGSKKVFQRIE | soluble
SLSKRLLSLASLALLFGCAQQPNDRAQQYQQQTFPHILNRADVVESNKPRDYTEFSKQSELVVQGSASMAKIYRPLYEQLNEWVLQSGDPATLAQFGIQAAQLGGGDKQGNVLFTGYFSPVIELRHQPDSVFKYPVYGLPKCNKNCPTRAEIYQGALDGQGLELGYAENLIDPFIMEVQGSGFVHFGDDDTLEYFAYAGKNNKAYVSIGKVLIERGLVEREKMSLKAIKDWVLANDEATVRELLEENPSFVFFKPSAAAPVKGSAGIPLLPMASVAGDRSILPMGTPILAEVPLLNADGTWSGAHQLRLLIVLDTGGAVKQNHLDLYHGMGPRAGLEAGHYKHFGRVWKLGLENSPTQAPWALPPEKQQ | not soluble
SLSPAMSFLKSFPPPGSADGLRLQQPDTEAVLNGKGLGTGTLYIAESRLSWLDGSGLGFSLEYPTISLHAVSRDPNAYPQEHLYVMVNAKLGEESKEPLSDEDEEDNDDVEPISEFRFVPSDKSALEAMFTAMCECQALHPDPEDEDSDDYDGEEYDVEAHEQGQGDIPTFYTYEEGLSHLTAEGQATLERLEGMLSQSVSSQYNMAGVRTEDSVRNYEDGMEVETTPTVAGQFEDADVDH | soluble
SLSTRGINFLHQWIANNVPETTKPDAVSISEITHKLFSDAKALGIKREDIDEEVESLTAHCSIGLCISTLA | not soluble
SLTMNPLLTAEWGNVSEEKVEVVVDAGLGKALLVPASVESLSMQFNGVEVASLEEFDYSPTKSNARIVIGIDPNELVRALERYFESNQHGELSVEAKLGLFGLLHSTLTFSREFQQDILGQMDFKAESKPIFGGLLYTPSVEGTKVVWLGAENGVWNLKTYATLKNPNSFPIPVSNLEFEVSVNGIKVGVGNISQGVTIPAGGVATVPIDTEIYSEYLPTVLVAHIKNGEESSVEVNFYITVSSGGKSARINLTSERIVIQTDIMASINDALSGVSPRE | soluble
SLTQKEQEEKLYMMLPVFNRVFGNAPPNTMTEKFSDLLQFTTQVSRLMVTEIRRRASNKSTEAASRAIVQFLEINQSEEASRGWMLLTTINLLASSGQKTVDCMTTMSVPSTLVKCLYLFFDLPHVPEAGGGAQNELPLAERRGLLQKAFVQILVKLCSFVSPAEELAQKDDLQLLFSAITSWCPPYNLPWRKSAGEVLMTISRHGLSVNVVKYIHEKECLSTCVQNMQQSDDLSPLEIVEMFAGLSCFLKDSSDVSQTLLDDFRIWQGYNFLCDLLLRLEQGKEAECRDALKDLVSLVTSLTTYGVSELKPAGVTTGAPFLLPGFAVPQPAGKGHSVRNIQAFAVLQNAFLKAKTNFLAQIILDAITNIYMADNANYFILESQHTLSQFAEKISKLPEVQNKYFEMLEFVVFSLNYIPCKELISVSILLKSSSSYHCSIIAMKTLLKFTRHDYIFKDVFREVGLLEVMVNLLHKYAALLKDPAQALN | soluble
SLTTVSVNESLLTPLNLEIDPNAQCVKQEEKEQIKSLNSRFAAFIDKVRFLEQQNKLLETKLQFYQNRECCQSNMEPLFEGYIETLRREAECVEADSGRLASELNHVQEVLEGYKKKYEEEVSLRATAENEFVALKKDVDCAYLRKSDLEANVEALIQEIDFLRRLYEEEIRILQSHISDTSVVVKLDNSRDLNMDCIIAEIKAQYDDIVTRSRAEAESWYRSKCEEMKATVIRHGETLRRTKEEINELNRMIQRLTAEVENAKCQNSKLEAAVAQSEQQGEAALSDARCKLAELEGALQKAKQDMACLIREYQEVMNSKLGLDIEIATYRRLLEGEEQRLCEGIGAVNVCVSSSRGGVVCGDLCVSGSRPVTGSVCSAPCNGNVAVSTGLCAPCGQLNTTCGGGSCGVGSCGISSLGVGSCGSSCRKC | soluble
SMEEKLKKTNIIFVVGGPGSGKGTQCEKIVQKYGYTHLSTGDLLRSEVSSGSARGKKLSEIMEKGQLVPLETVLDMLRDAMVAKVNTSKGFLIDGYPREVQQGEEFERRIGQPTLLLYVDAGPETMTQRLLKRGETSGRVDDNEETIKKRLETYYKATEPVIAFYEKRGIVRKVNAEGSVDSVFSQVCTHLDALLN | soluble
SMQGPRTRARLGANEVLLVVGGFGSQQSPIDVVEKYDPKTQEWSFLPSITRKRRYVASVSLHDRIYVIGGYDGRSRLSSVECLDYTADEDGVWYSVAPMNVRRGLAGATTLGDMIYVSGGFDGSRRHTSMERYDPNIDQWSMLGDMQTAREGAGLVVASGVIYCLGGYDGLNILNSVEKYDPHTGHWTNVTPMATKRSGAGVALLNDHIYVVGGFDGTAHLSSVEAYNIRTDSWTTVTSMTTPRCYVGATVLRGRLYAIAGYDGNSLLSSIECYDPIIDSWEVVTSMGTQRCDAGVCVLRE | soluble
SMRYTVSNLSMQTHAARFKTFFNWPSSVLVNPEQLASAGFYYVGNSDDVKCFCCDGGLRCWESGDDPWVQHAKWFPRCEYLIRIKGQEFIRQVQAS | soluble
SNAGQLCCLREDGERCGRAAGNASFSKRIQKSISQKKVKIELDKSARHLYICDYHKNLIQSVRNRRKRKGS | soluble
SNAMILIDGKSLSKDLKERLATQVQEYKHHTAITPKLVAIIVGNDPASKTYVASKEKACAQVGIDSQVITLPEHTTESELLELIDQLNNDSSVHAILVQLPLPAHINKNNVIYSIKPEKDVDGFHPTNVGRLQLRDKKCLESCTPKGIMTMLREYGIKTEGAYAVVVGASNVVGKPVSQLLLNAKATVTTCHRFTTDLKSHTTKADILIVAVGKPNFITADMVKEGAVVIDVGINHVDGKIVGDVDFAAVKDKVAAITPVPGGVGPMTITELLYNTFQCAQELNR | soluble
SNAMKKTLILGATPETNRYAYLAAERLKSHGHEFIPVGRKKGEVLGKTIINERPVIEGVDTVTLYINPQNQLSEYNYILSLKPKRVIFNPGTENEELEEILSENGIEPVIGCTLVMLSAGTF | soluble
SNAMPKRSKEDTEITIQKIMDAVVDQLLRLGYDKMSYTTLSQQTGVSRTGISHHFPKKTDFTAALDGRIFKMFIEHLEFEKGLDAFSQSWIKALEDSEFLAILRLLFHHIVTSESAHEFAANGIDRLYKMVESQFGSGGDKELEWLIGRSLIQMSK | soluble
SNAMTKIYFAGPLFSQADLRYNAYLVEQIRQLDKTIDLYLPQENAAINDKSAYADSKMIALADTENVLASDLLVALLDGPTIDAGVASEIGVAYAKGIPVVALYTDSRQQGADNHQKLDALNEIAENQFHYLNLYTVGLIKLNGRVVSSEEDLLEEIKQRLS | soluble
SNATAYIIVGLTPKDAEKLQQYGARVASTLAKYSGEVLVKGSVEQLHGKFEHKAQVILEFPSREDAYNWYHSEEYQALISTRDLGMDSQFQLIG | soluble
SNAVFGVKEWECEVLSNKNVSTFIKEFVVKLPEGETMNFKSGSYAQIKIPKYNIRYADYDIQDRFRGDWDKMDAWSLTCKNEEETVRAYSMANYPAEGNIITLNVRIATPPFDRAANKWKAGIKPGISSSYIFSLKPGDKVMMSGPYGDFHIQDTDAEMLYIGGGAGMAPLRAQILHLFRTLKTGRKVSYWYGARSKNEIFYEEDFREIEREFPNFKFHIALSDPQPEDNWTGYVGFIHQVIYDNYLKDHDAPEDIEYYMCGPGPMANAVKGMLENLGVPRNMLFFDDFG | soluble
SNMEVDVFPDLNAPTVVVMTEATGMAPEEVERLVTFPVETAVNGATDVRRVRSSSTTGFSIVWVEFDWGTDIYRARQIVSEKLAVVGADLPDNVGKPTLGPQSSILGEVMIIGLTADSTSLQDLRTLADWTIRPRLLSIGGVAQVTVLGGDIKEYQILLNPERMKHYGITLAEVRAAVDQMNRNASGGVLYEYGNEYIICGLLSTNDAAALGKTLVKSLDDIPIMLESVAEVRVGNKAPKLGLASERGQSAVLVTITKQPATSTLELTERLDRSLADLQKALPSDVKVSTDIFRQERFIENSISNVRK | not soluble
